The results in this text go back to US10689452 (UNIVERSIT T STUTTGART, dated 2020).

Broadly, the koff is the first-order rate constant of dissociation. Lower therefore signals slow dissociation. A word on the EC50: it is the midpoint of the concentration-response curve. By Kd is commonly meant the equilibrium constant for the complex coming apart. Read a low Kd as higher affinity. Broadly, the kon is the rate constant with which the complex forms. The low end stands for slow association, the high end for fast association.

Experiment [1] concerns the target T1, human TNFR1-Fc fusion protein (human, UniProt P19438 29-211).
T1 construct: range 29-211; Made in stably transfected HEK293 cells; coated on ELISA plates or immobilised on QCM chips; also called huTNFR1-Fc; human TNFR-Fc; not shown: Fc part from vector pSecTagL1-Fc
T1 sequence (looked up): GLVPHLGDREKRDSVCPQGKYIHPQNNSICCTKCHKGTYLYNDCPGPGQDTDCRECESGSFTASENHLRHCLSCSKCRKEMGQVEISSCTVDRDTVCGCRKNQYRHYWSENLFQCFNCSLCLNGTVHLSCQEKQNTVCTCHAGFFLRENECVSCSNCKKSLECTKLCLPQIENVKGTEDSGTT
The experiment is described as follows: QCM.

Experiment [2] deals with T1, human TNFR1-Fc fusion protein. The experiment is described as follows: ELISA, human TNFR1-Fc.
For experiment [3], the target named is T2, human TNFR1 on cells (HT1080, HeLa, Kym-1) (human, UniProt P19438 30-455).
T2 sequence (looked up): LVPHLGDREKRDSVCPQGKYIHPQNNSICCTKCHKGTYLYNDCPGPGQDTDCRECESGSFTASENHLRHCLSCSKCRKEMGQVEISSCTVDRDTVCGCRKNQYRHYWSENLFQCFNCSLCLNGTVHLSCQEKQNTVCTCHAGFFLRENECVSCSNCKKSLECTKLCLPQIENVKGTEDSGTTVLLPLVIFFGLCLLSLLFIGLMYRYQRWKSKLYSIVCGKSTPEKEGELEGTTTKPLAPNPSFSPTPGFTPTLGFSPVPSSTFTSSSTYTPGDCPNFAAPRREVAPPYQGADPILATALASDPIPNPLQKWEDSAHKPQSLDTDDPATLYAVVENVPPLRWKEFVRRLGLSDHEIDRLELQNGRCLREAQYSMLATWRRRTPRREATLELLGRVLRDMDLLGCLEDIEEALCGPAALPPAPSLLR
The experiment is described as follows: cell-based or functional assay.

Experiment [4] addresses T1, human TNFR1-Fc fusion protein. The experiment is described as follows: QCM, human TNFR1-Fc immobilised. On the procedure:
(§1) Real-time binding dynamics in protein-protein interactions were determined by quartz crystal microbalance measurements (A-100 C-Fast or Cell-200 C-Fast, Attana, Stockholm, Sweden). One of the binding partners (ligand, e.g. TNFR1-Fc) was chemically immobilized on a carboxyl sensor chip according to the manufacturer's protocol at different densities (nearly 200 Hz in the case of saturating conditions to confirm previously published results and 50-100 Hz, in particular at about 50 Hz, to establish conditions of lower receptor density, better resembling the situation on the cellular surface). Binding experiments were performed with samples (analyte) diluted in PBST (PBS, 0.1% Tween 20) at pH 7.4 with a flow rate of 25 µl/min at 37° C. The chip was regenerated with 25 µl 5 mM NaOH or 20 mM glycine, pH 2.0. Every third measurement, an injection of running buffer was measured which was subtracted from the binding curve. Data were collected using the software provided by Attana for the particular device and analyzed by Attaché Office Evaluation software (Attana, Stockholm, Sweden) and TraceDrawe (ridgview instruments, Vange, Sweden).

For experiment [5] the target is unchanged. Put plainly: QCM, soluble scFv, moderate receptor density. On the procedure:
as §1

Experiment [6] has as its target T2, human TNFR1 on cells (HT1080, HeLa, …). Put plainly: cell-based or functional assay. The source holds these as a separate data set.
Experiment [7] shares this target. The experiment is described as follows: cell-based or functional assay. This is another data set of the same source.
Experiment [8] addresses T1, human TNFR1-Fc fusion protein. The experiment is described as follows: ELISA, immobilised human TNFR1-Fc. (In an ELISA, binding on a coated surface is turned into a signal by an enzyme label.)
The target is the same in experiment [9]. The experiment is described as follows: ELISA, immobilised human TNFR1-Fc. The source holds these as a separate data set.
Experiment [10] addresses T2, human TNFR1 on cells (HT1080, HeLa, …). Put plainly: cell-based or functional assay. This is another data set of the same source.
Experiment [11] has as its target T1, human TNFR1-Fc fusion protein. The experiment is described as follows: standard ELISA, human TNFR1-Fc. As for the experimental part: (§2) FIG. 1. […] Applied were triplicates of five concentrations between 3.9 nM and 62.5 nM.
Microtiter plates were coated with 100 µl of the indicated protein (1 µg/ml in PBS, see Table 3.3) and incubated at 4° C. over night. The residual binding sites were blocked with 2% MPBS (skim milk in PBS, 200 µl per well) at room temperature for 2 hours and subsequently washed twice with PBS. 100 µl of the samples diluted in 2% MPBS were incubated at room temperature for 1 hour prior to the last incubation step with 100 µl of the HRP conjugated detection antibodies in 2% MPBS. In the case of competition experiments, both analyzed protein samples were prepared individually (either titrated or diluted to a single concentration) and mixed before they were applied to the plate. Bound protein was detected with 100 µl TMB substrate solution, the HRP-reaction was stopped by the addition of 50 µl 1 M H2SO4 and the absorption at the wavelength of 450 nm was measured using the Infinite microtiter plate reader (TECAN, Maennedorf, Switzerland). Between each incubation step and in advance of the detection, the plates were washed three times with PBST and twice with PBS.

Experiment [12] shares this target. Put plainly: QCM, human TNFR1-Fc immobilised, low receptor density (48 Hz). On the procedure: as §1
The target is the same in experiment [13]. Put plainly: QCM, human TNFR1-Fc immobilised, high receptor density (195 Hz). As for the experimental part:
as §2, §1

The target is the same in experiment [14]. Put plainly: ELISA, human TNFR1-Fc. This is another data set of the same source.
In experiment [15] the target is T2, human TNFR1 on cells (HT1080, HeLa, …). The experiment is described as follows: cell-based or functional assay. The source holds these as a separate data set.
The target in experiment [16] is T1, human TNFR1-Fc fusion protein. Put plainly: phage ELISA on human TNFR1.

B1: scFvIG11 (scFv, V domains shown)
VH: QVQLVQSGAEVKKPGSSVKVSCKASGYTFTDFYINWVRQAPGQGLEWIGEIVPTQGEAKYNDKFKARVTITADKSTSTAYMELSSLRSEDTAVYYCARWDFLDYWGQGTTVTVSS
VL: DIVMTQSPLSLPVTPGEPASISCRSSQSLLHSNGNTYLHWYLQKPGQSPQLLIYTVSNRFSGVPDRFSGSGSGTDFTLKISRVEAEDVGVYYCSQSTHVPYTFGGGTKVEIK
For B1, in experiment [1], the “fold KD compared with scFvIZI06.1” value came out at 2 fold, the “fold reduced koff compared with scFvIZI06.1” value was about 3 fold and the koff is 0.00026 s⁻¹. In addition, in [2], the EC50 is 2.6 nM. Besides, the “IC50 (nM), approximated; inhibition of TNF (0.1 nM) induced IL-8 release” value (“IC50 (nM), approximated; inhibition” for short) in experiment [3] is about 300 nM. In experiment [4], this molecule came in with a Kd of 24.9 nM, a koff of 0.0036 s⁻¹ and a kon of 150000 M⁻¹ s⁻¹. Further, the “relative koff (compared with scFvIZI06.1)” value (from here on “relative koff”) in experiment [5] was 0.31 relative to scFvIZI06.1.

B2: IgG13.7half (antibody, V domains shown)
VH: HVQLVQSGAEVKKPGSSVKVSCKASGYTFTDFYINWVRQAPGQGLEWIGEIVPSQGEAKYNDKFKARVTITADKSTSTAYMELSSLRSEDTAVYYCARWDFLDYWGQGTTVTVSS
VL: DVQMTQSPSSLSASVGDRVTITCRSSQSLLHSNGNTYLHWYQQKPGKAPKLLIYTVSNRFSGVPSRFSGSGSGTDFTLTISSLQPEDFATYYCSQSTHVPYTFGGGTKVEIKR
notes: Monovalent half IgG1
Regarding B2, in experiment [6], the “fold higher IC50 (IL-8 release inhibition) compared to Fab13.7” value worked out at 1.8 fold. The “IL-8 Inhibition IC50 [nM] (HT1080 cells, 0.1 nM soluble TNF)” value in experiment [7] was 63.3 nM. The “fold increased EC50 compared to unmodified Fab13.7” value in experiment [8] was found to be 1.9 fold. This molecule also showed an EC50 in [9] of 0.8 nM.

B3: H398 (antibody, V domains shown)
VH: QVQLQESGAELARPGASVKLSCKASGYTFTDFYINWVKQRTGQGLEWIGEIYPYSGHAYYNEKFKAKATLTADKSSSTAFMQLNSLTSEDSAVYFCVRWDFLDYWGQGTTLTVSS
VL: DIVMTQSPLSLPVSLGDQASISCRSSQSLLHSNGNTYLHWYVQKPGQSPKLLIYTVSNRFSGVPDRFSGSGSGTDFTLKISRVEAEDLGVYFCSQSTHVPYTFGGGTKLEIK
As to B3, in experiment [10], the “IC50, LT [nM] (inhibition of IL-8 release from HT1080 cells induced by LTα)” value stood at 0.65 nM and the “IC50, TNF [nM] (inhibition of IL-8 release from HT1080 cells induced by 0.1 nM TNF)” value stood at 4.1 nM. The molecule further showed an EC50 in experiment [11] of 0.15 nM. Also, in experiment [12], the Kd was determined as 1.6 nM and the koff came to 0.00062 s⁻¹. In addition, in experiment [13], binding was characterised by a dissociation constant (Kd) of 0.23 nM.

B4: scFvIZI06.1 (scFv, V domains shown)
VH: QVQLVQSGAEVKKPGSSVKVSCKASGYTFTDFYINWVRQAPGQGLEWIGEIYPYSGHAYYNEKFKARVTITADKSTSTAYMELSSLRSEDTAVYYCARWDFLDYWGQGTTVTVSS
VL: DIVMTQSPLSLPVTPGEPASISCRSSQSLLHSNGNTYLHWYLQKPGQSPQLLIYTVSNRFSGVPDRFSGSGSGTDFTLKISRVEAEDVGVYYCSQSTHVPYTFGGGTKVEIK
notes: Made in the periplasm of E. coli TG1; also called ATROSAB scFv
Regarding B4, the koff in experiment [1] is 0.00076 s⁻¹. For the same molecule, the response in experiment [2] was half-maximal at 3.8 nM (EC50). For the same molecule, in experiment [14], the EC50 turned out to be 3.07 nM. Besides, the “IC50 (nM), approximated; inhibition” value in experiment [3] is about 200 nM. Further, the “IC50 (nM), inhibition of TNF-induced IL-8 release from HT1080 cells” value in [15] was 932 nM. Further, the “relative EC50 (compared with scFvIZI06.1)” value in experiment [16] is 1 relative to scFvIZI06.1. Further, in [4], the Kd was found to be 28.9 nM, the koff stood at 0.014 s⁻¹ and the kon is 500000 M⁻¹ s⁻¹. For the same molecule, the “relative koff” value in [5] was 1 relative to scFvIZI06.1.

B5: scFvT12B (scFv, V domains shown)
VH: HVQLVQSGAEVKKPGSSVKVSCKASGYTFTDFYINWVRQAPGQGLEWIGEIVPSQGEAKYNDKFKARVTITADKSTSTAYMELSSLRSEDTAVYYCARWDFLDYWGQGTTVTVSS
VL: DIVMTQSPLSLPVTPGEPASISCRSSQSLLHSNGNTYLHWYLQKPGQSPQLLIYTVSNRFSGVPDRFSGSGSGTDFTLKISRVEAEDVGVYYCSQGTHVPYTFGGGTKVEIK
As to B5, in experiment [2], the EC50 is 2 nM and the “Improved (factor of EC50 regarding scFvIG11)” value was 1.3 fold. Besides, a half-maximal effect in experiment [14] (EC50) was put at 1.14 nM. In experiment [3], the “IC50 (nM), approximated; inhibition” value was about 45 nM and the “Improved (factor of IC50 regarding scFvIG11)” value was about 6.7 fold. Further, the “IC50 (nM), inhibition of TNF-induced IL-8 release from HT1080 cells” value in experiment [15] worked out at 309 nM. Further, the “relative EC50 (compared with scFvIZI06.1)” value in experiment [16] is 0.017 relative to scFvIZI06.1. Also, in [4], the “Improved (factor of KD regarding scFvIG11)” value was determined as 4.1 fold, the “Improved (factor of koff regarding scFvIG11)” value is 2 fold and the “Improved (factor of kon regarding scFvIG11)” value came out at 2.1 fold. Moreover, in experiment [5], the “relative koff” value is 0.25 relative to scFvIZI06.1.
